# Assay results published in article doi:10.1101/2025.03.26.645438.
# Target: Human GLP1R protein (human) (UniProt P43220)
# Sequence (P43220 24-463): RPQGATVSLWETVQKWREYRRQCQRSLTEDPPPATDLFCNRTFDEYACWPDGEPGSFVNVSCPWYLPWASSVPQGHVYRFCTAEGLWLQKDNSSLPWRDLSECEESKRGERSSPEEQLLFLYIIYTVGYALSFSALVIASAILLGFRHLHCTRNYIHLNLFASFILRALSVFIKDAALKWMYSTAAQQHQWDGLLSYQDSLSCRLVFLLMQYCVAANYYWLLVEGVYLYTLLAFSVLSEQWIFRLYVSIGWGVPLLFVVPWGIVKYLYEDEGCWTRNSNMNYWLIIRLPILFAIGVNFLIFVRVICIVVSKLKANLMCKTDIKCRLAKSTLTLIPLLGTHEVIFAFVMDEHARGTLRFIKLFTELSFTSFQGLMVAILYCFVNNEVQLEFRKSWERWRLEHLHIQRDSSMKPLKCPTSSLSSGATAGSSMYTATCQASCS
substance,measurement,value
Semaglutide (peptide),"cAMP accumulation (HTRF) in HEK293 cells stably expressing human GLP-1R, EC50",19 pM
